The target of assay [1] is T1, human LEPR, full length, on HEK293-STAT3Luc-hLepR1 cells (Homo sapiens, UniProt P48357 22-1165).
T1 construct: also called human LEPR on live cell surface
T1 sequence: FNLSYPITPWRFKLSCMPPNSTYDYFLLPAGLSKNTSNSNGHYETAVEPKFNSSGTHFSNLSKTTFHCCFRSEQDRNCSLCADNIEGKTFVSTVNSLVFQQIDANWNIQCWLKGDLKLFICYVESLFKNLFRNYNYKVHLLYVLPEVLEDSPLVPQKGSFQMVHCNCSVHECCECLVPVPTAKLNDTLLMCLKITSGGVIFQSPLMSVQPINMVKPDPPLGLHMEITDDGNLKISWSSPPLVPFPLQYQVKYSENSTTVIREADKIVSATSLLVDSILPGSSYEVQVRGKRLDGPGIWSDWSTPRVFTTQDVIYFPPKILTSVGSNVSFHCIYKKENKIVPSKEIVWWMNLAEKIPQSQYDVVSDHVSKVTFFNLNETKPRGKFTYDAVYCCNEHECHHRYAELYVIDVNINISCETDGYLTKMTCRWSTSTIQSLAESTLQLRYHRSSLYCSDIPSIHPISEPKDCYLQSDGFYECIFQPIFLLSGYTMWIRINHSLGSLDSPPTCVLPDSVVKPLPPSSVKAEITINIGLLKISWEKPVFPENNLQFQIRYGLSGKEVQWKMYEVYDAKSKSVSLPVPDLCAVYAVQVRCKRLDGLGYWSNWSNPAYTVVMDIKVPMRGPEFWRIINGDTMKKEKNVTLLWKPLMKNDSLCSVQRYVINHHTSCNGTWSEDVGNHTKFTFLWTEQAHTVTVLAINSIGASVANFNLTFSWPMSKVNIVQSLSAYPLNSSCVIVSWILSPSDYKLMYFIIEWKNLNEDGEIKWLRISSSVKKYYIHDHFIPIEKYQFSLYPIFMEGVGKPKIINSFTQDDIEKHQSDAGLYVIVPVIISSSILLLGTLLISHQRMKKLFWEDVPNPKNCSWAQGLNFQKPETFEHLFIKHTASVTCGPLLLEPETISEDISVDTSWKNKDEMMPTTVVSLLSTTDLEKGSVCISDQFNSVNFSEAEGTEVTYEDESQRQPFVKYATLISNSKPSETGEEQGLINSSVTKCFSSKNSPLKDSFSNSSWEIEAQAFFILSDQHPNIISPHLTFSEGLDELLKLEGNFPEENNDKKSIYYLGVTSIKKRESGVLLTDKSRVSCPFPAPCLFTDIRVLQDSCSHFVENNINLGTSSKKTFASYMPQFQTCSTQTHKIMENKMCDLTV
Kind of assay: flow cytometry on live HEK293-STAT3Luc-hLepR1 cells, AF647 anti-human IgG; average of 4 runs, SD 1.7. (In general: A flow cytometer gives signals particle by particle.)
Method: Cells were incubated in blocking buffer for 10 mins at room temperature. After one rinse with PBS, cells were transferred to U-bottom 96-well plate at 200 μL and 0.2˜0.26^e6 cells/well. […] Cells were then incubated with 30 μL/well of antibodies diluted in flow buffer at 1000 nM as high dose followed by 9-point dose response including 5-fold dilutions not including 0 (totaling 9 concentrations for each Antibody) for 30 minutes at 4° C. in dark.

A further assay addresses T2, canine LEPR-ECD-His (canine).
T2 chain: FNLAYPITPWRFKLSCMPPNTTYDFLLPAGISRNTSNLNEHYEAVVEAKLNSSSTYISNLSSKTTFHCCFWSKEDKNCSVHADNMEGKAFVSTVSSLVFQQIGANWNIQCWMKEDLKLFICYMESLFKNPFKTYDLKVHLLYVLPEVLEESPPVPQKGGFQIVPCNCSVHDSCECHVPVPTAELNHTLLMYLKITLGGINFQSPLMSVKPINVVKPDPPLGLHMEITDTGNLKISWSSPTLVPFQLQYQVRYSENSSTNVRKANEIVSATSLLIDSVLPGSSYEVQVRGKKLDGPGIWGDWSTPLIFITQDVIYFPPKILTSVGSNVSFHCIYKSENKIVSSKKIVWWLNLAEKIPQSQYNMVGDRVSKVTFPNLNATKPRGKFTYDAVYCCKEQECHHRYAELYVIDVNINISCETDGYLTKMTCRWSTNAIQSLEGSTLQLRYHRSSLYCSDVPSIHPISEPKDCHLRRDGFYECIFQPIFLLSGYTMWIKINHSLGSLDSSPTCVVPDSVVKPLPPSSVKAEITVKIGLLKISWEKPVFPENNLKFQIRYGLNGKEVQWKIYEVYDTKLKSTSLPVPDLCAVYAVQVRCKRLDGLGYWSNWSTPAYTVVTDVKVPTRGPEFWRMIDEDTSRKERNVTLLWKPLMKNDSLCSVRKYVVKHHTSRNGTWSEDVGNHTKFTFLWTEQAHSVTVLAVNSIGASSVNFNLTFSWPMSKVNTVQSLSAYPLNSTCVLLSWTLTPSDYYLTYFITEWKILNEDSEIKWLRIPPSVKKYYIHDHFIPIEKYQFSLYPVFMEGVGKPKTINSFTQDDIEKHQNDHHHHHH
Kind of assay: SPR (Biacore T200), antibody captured on Protein A/G chip, His-tagged LEPR-ECD as analyte, 1:1 fit; mean n=2, SD 1.9E-8. (In SPR one partner is held on a chip, and binding of the other changes the refractive index at the surface.)

A further assay has as its target T3, Mouse LEPR-ECD-His (mouse, UniProt P48356 22-839).
T3 sequence: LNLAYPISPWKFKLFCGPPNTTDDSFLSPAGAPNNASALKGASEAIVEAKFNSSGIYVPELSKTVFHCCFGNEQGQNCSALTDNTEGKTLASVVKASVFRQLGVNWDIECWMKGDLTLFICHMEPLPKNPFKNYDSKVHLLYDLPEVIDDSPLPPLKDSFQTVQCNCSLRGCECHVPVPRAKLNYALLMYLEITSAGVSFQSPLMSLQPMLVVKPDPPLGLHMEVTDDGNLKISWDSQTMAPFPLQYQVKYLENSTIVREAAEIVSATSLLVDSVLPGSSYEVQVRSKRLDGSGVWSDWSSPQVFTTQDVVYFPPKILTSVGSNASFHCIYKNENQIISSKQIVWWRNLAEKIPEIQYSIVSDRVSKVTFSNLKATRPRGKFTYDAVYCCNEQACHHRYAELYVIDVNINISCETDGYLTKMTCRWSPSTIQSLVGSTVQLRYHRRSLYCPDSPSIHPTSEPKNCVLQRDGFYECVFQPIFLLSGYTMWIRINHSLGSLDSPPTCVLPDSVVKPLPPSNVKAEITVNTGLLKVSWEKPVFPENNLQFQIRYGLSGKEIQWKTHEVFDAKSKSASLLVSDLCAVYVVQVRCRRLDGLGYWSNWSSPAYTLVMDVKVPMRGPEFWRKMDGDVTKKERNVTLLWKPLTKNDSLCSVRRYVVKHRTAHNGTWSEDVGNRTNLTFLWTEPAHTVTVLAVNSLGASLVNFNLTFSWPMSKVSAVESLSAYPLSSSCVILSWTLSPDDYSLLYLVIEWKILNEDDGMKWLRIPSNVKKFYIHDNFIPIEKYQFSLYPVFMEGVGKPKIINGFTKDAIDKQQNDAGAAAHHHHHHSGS
The assay is described as follows: SPR (Biacore T200), antibody captured on Protein A/G chip, n = 1.

Method for Mouse LEPR-ECD-His: (§1) His-tagged ECDs were expressed and purified for each species and used for affinity analysis. A Protein A/G chip (Xantec, Cat #PAGHC200M) was utilized in this experiment with HBS-EP +0.01% BSA as running buffer. Antibodies were diluted to 1 μg/mL in running buffer and captured to a single flow cell on the chip surface. Each species of LEPR-ECD was diluted to 1000 nM in running buffer followed by 2-fold serial dilution. Each ligand concentration was injected over all flow cells at 100 L/min for 150 seconds followed by a 600 second dissociation phase. Regeneration was performed by injecting 10 mM glycine pH1.5 for 30 seconds at 10 μL/min. Data were analyzed in Biacore T200 Evaluation Software 3.1 by flow-cell 1 reference subtraction along with 0 nM blank subtraction. Data were fit globally using a “1:1 Binding” binding model to determine the on-rate (kₐ) and off-rate (kd) for each ligand. The affinity (KD) was calculated from the binding kinetics according to the relationship KD=kₐ/kd. Data reported as mean±standard deviation of experimental replicates.
Method for canine LEPR-ECD-His: as §1

B1: Antibody A (antibody, human IgG1, kappa, L234A L235A)
heavy: EVQLLESGGGLVQPGGSLRLSCAASGFTFSSFAMSWVRQAPGKGLEWVSAISGSGGSTYSADSVRGRFTISRDNSKNTLYLQMNSLRAEDTAVYYCAKDQGDWDFLFDYWGQGTLVTVSSASTKGPSVFPLAPSSKSTSGGTAALGCLVKDYFPEPVTVSWNSGALTSGVHTFPAVLQSSGLYSLSSVVTVPSSSLGTQTYICNVNHKPSNTKVDKRVEPKSCDKTHTCPPCPAPEAAGGPSVFLFPPKPKDTLYITREPEVTCVVVSVSHEDPEVKFNWYVDGVEVHNAKTKPREEQYNSTYRVVSVLTVLHQDWLNGKEYKCKVSNKALPAPIEKTISKAKGQPREPQVYTLPPSREEMTKNQVSLTCLVKGFYPSDIAVEWESNGQPENNYKTTPPVLDSDGSFFLYSKLTVDKSRWQQGNVFSCSVMHEALHNHYTQKSLSLSPGK
light: DIQMTQSPSFLSASVGDRVTITCRASQGISSSLAWYQQKPGKAPKLLIYTASTLQSGVPSRFSGSGSGTEFTLTISSLQPEDFATYYCQQLIYYPFTFGQGTKVEIKRTVAAPSVFIFPPSDEQLKSGTASVVCLLNNFYPREAKVQWKVDNALQSGNSQESVTEQDSKDSTYSLSSTLTLSKADYEKHKVYACEVTHQGLSSPVTKSFNRGEC
notes: IgG1 mAb
In general, EC50 refers to the midpoint of the concentration-response curve. With B1, the EC50 in assay [1] came out at 2.45 nM.

B2: Antibody B (antibody, human IgG1, kappa, L234A L235A, V domains shown)
VH: EVQLLESGGGLVQPGGSLRLSCAASGFTFSSFAMSWVRQAPGKGLEWVSAISGSGGSTYSADSVRGRFTISRDNSKNTLYLQMNSLRAEDTAVYYCAKDQGDWDFLFDYWGQGTLVTVSS
VL: DIQMTQSPSFLSASVGDRVTITCRVSQGISSSLAWYQQKPGKAPKLLIYTASTLQSGVPSRFSGSGSGTEFTLTISSLQPEDFATYYCQQLNYYPFTFGQGTKVEIKR
A word on the Kd: it is the concentration at which binding is half-saturated. Low readings indicate higher affinity, high ones lower affinity. Consider B2, for which binding in the assay with canine LEPR-ECD-His was characterised by a dissociation constant (Kd) of 330 nM.

B3: Antibody C (antibody, human IgG1, kappa, L234A L235A, V domains shown)
VH: EVQLLESGGGLVQPGGSLRLSCAASGFTFSSFAMSWVRQAPGKGLEWVSAISGSGGSTYSADSVRGRFTISRDNSKNTLYLQMNSLRAEDTAVYYCAKDQGDWDFLFDYWGQGTLVTVSS
VL: DIQMTQSPSFLSASVGDRVTITCRASQGISSSLAWYQQKPGKAPKLLIYTASTLQSGVPSRFSGSGSGTEFTLTISSLQPEDFATYYCQQLNYYPFSFGQGTKVEIKR
Take B3: in the assay with Mouse LEPR-ECD-His, the binding result is “no binding (tested: LEPR-ECD tested up to 1000 nM)”.

(Values after patent US20250289897A1 (Eli Lilly, published 2025).)
